Data set [1] deals with the molecule itself. Kind of data set: negative-stain electron microscopy.
For data set [2], the target named is T1, SpoIIIE motor domain (SpoIIIE C-terminal) (Bacillus subtilis, UniProt P21458 177-787).
T1 sequence: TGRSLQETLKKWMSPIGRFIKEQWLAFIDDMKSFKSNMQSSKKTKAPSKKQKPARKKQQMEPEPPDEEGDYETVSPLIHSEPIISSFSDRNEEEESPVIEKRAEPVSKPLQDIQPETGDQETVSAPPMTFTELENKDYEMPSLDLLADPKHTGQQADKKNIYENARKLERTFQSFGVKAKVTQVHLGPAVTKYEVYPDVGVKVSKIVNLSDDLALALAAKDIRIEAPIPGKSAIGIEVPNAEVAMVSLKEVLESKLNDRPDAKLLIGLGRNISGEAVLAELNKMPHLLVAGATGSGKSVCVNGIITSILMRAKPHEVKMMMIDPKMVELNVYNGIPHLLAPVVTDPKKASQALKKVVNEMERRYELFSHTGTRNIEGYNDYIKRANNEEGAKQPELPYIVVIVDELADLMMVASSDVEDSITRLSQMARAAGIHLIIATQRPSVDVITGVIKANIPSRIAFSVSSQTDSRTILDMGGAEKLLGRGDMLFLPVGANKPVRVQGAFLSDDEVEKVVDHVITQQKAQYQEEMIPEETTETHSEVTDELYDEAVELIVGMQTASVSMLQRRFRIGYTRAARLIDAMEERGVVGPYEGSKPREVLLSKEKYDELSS
Kind of data set: fluorescence anisotropy.

Data set [3] addresses T1, SpoIIIE motor domain (SpoIIIE …). The data set is described as follows: fluorescence anisotropy. This is another data set of the same source. (In general: In fluorescence polarisation assays a small probe gives low polarisation when free and higher when bound to something large.)
The target of data set [4] is T2, SpoIIIE467 (Walker A mutant) (Bacillus subtilis, UniProt P21458 177-787, G467S).
T2 sequence: T1 sequence with G291S
Kind of data set: fluorescence anisotropy.

Data set [5] concerns the target T1, SpoIIIE motor domain (SpoIIIE …). Kind of data set: fluorescence anisotropy. The source holds these as a separate data set.

Positions count from the first letter of the chain named. Like-named read-outs stand apart in the source and are kept apart here.

B1: SpoIIIE C-terminal motor domain (residues 177-787) with a C-terminal hexahistidine tag (domain or fragment, Bacillus subtilis, UniProt P21458 177-787, looked up)
chain: T1 sequence
As a reminder, the stoichiometry N is a count of units in the complex or per binding partner. In the case of B1, in data set [1], the “stoichiometry N” value amounted to 6.

B2: DNANS (43 bp, no SRS) (dsDNA)
DNA 1: GCGGAGGCGGGAGGCGGAGATCTTACCGCTGTTGAGATCCAGC
DNA 2: GCTGGATCTCAACAGCGGTAAGATCTCCGCCTCCCGCCTCCGC
In general, Kd refers to a measure of binding affinity in units of concentration. Read a low Kd as a tighter complex. As for B2, the Kd amounted to 60 ± 9 nM in data set [2], 43 ± 9 nM in data set [3], 63 ± 3 nM in data set [4] and 61 ± 11 nM in data set [5].

For the origin of these results see paper PMC3936747 (Nucleic Acids Research, 2013).
